Laboratory results from PMC7857400 (Science (New York, N.y.), 2020).

B1: Nb20 (VHH)
VHH: QVQLVESGGGLVQAGGSLRLSCAVSGAGAHRVGWFRRAPGKEREFVAAIGASGGMTNYLDSVKGRFTISRDNAKNTIYLQMNSLKPQDTAVYYCAARDIETAEYIYWGQGTQVTVSS
B2: Nb21 (VHH)
VHH: QVQLVESGGGLVQAGGSLRLSCAVSGLGAHRVGWFRRAPGKEREFVAAIGANGGNTNYLDSVKGRFTISRDNAKNTIYLQMNSLKPQDTAVYYCAARDIETAEYTYWGQGTQVTVSS

How the values were obtained:
[1] = target: T1, SARS-CoV-2 spike protein receptor binding domain (RBD) (SARS-CoV-2, UniProt P0DTC2); experiment: SPR; conditions: both partners purified
[2] = target: T1, SARS-CoV-2 spike protein receptor …; experiment: cell-based or functional assay

Binder | Kd [1] [nM] | IC50 of neutralisation, pseudotyped SARS-CoV-2 (luciferase reporter); RBD-hACE2 is the pair interfered with [2] [nM]
B1 | 0.0104 | 0.102
B2 |  | 0.045
